US9932382B2, “Kv2.1 channel-derived peptides and methods of use” (University of Pittsburgh—Of the Commonwealth System of …, priority 2014, dated 2018)

Tested on: cortical neurons
Assay: Viability of transfected neurons exposed to activated microglia (GFP+ cell counts)
Assay type: cell-based, rat
Settings: overnight exposure to activated microglia; vector-expressing cells reduced by nearly 40%
Protocol: For electrophysiological experiments, mixed cortical neuronal/glial cultures were prepared from embryonic day 16 (E16) Sprague-Dawley rats (Charles River Laboratories, Wilmington, Mass., USA). Donor rats were euthanized by gradual CO2 exposure. Cortices were dissociated with trypsin, and the resultant cell suspension, adjusted to 670,000 cells per well, was plated on glass coverslips in 6-well plates as described previously (Hartnett et al., J Neurochem 68, 1836-1845, 1997). Non-neuronal cell proliferation was inhibited after two weeks in culture with 1-2 μM cytosine arabinoside, and cultures utilized at three to four weeks in vitro. For neuronal transfection, cells were treated for five hours in serum-free medium with 2 μL LIPOFECTAMINE™ 2000 (Invitrogen, Carlsbad, Calif.), 50 μL Optimem (GIBCO, Grand Island, N.Y.), and 1.5 μg DNA per well. For CHO cell transfections, cells were plated on coverslips in 24-well plates at a density of 5.6×10^4 cells per well for electrophysiological measurements or in 100 mm dishes at a density of 1.7×10^6 cells per dish for biochemical studies. […]
Viability of transfected neurons was assessed by cell counts of GFP+ cells. […] GFP+ cells were counted in 20 random areas per coverslip using a 20× objective. […]
It was next evaluated whether C1a441-522 was sufficient to protect neurons against oxidative injury. […]

B1: C1a441-522: distal segment of C1a, residues 441-522 of rat Kv2.1 (protein, UniProt P15387 441-522, looked up, fragment)
chain: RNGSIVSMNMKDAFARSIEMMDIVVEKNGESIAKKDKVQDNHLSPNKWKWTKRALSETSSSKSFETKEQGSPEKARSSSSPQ
For B1, the “effect of activated microglia on viability of peptide-expressing neurons” value was “no detrimental effect”.
